Measurements reported in patent publication US20220112295A1 (Novo Nordisk, published 2022).
Substitutions are numbered along the chain they refer to.

B1: Antibody A (antibody, V domains shown)
VH: QVQLQESGPGLVKPSETLSLTCTVSGGSISSYIWSWIRQPAGKGLEWIGRIYASGNTNYNPSLKSRVTMSVDTSKNQFSLKLSSMTAADTAVYYCARDYRVAGTYYYYYGLDVWGQGTTVTVSS
VL: QSALTQPASVSGSPGQSITISCTGTSSDVGVYDYVSWYQQHPGKAPKLMIYEVSNRPSGVSNRFSGSKSGNTASLTISGLQTEDEADYYCSSYTSRSTWVFGGGTKLTVL
notes: Human antibody (XenoMouse); also called mAb A; anti-hCD30L A
B2: Antibody D (antibody, V domains shown)
VH: QVQLQESGPGLVKPSETLSLTCTVSGGSISSYSWSWIRQPAGKGLEWIGRTSTSGRNNYNPSLKSRVTMSVDTSKNQFSLKLNSVTAADTAVYYCARDFTIAARRYYYYGMDVWGQGTTVTVSS
VL: B1 VL with V29I, V31L, D33N, M49I, S54I, K68E, T82A, D87N, R96S
notes: also called mAb D
B3: Antibody B (antibody, V domains shown)
VH: QVQLQESGPGLVKPSETLSLTCTVSGGSISSYYWTWIRQPAGKGLEWIGRIYTSGITNYNPSLKSRVTMSVDTSKNQFSLKLSSVTAADTAVYYCARERVVGASRYYYYGVDVWGQGTTVTVSS
VL: B1 VL with V31L, D33N, G43D, Y51F, S54N, K68N, T82A, R96S
notes: also called mAb B
B4: Antibody F (antibody, V domains shown)
VH: QVQLQESGPGLVKPSETLSLTCTVSGGSISSYYWSWIRQPAGKGLEWIGRIFASGSTNYNPSLRSRVTMSRDTSKNQFSLKLSSVTAADTAVYYCAKERVGVQDYYHYSGMDVWGQGTTVTVSS
VL: B1 VL with V31L, D33N, H41Q, N55K, K68T, T82A, E83D, Y89S, R96S
notes: also called mAb F
B5: Antibody C (antibody, V domains shown)
VH: B3 VH
VL: QSALTQPASVSGSPGQSITISCTGTSSDIGLYDYVSWYQQHPDRAPKLIIFEVNNRPSGVSYRFSGSNSGNTASLTISGLQAEDEADYYCSSYTSSSTWVFGGGTKLTVL
notes: also called mAb C
B6: Antibody E (antibody, V domains shown)
VH: QVQLQESGPRLVKPSETLSLTCTVSGGSITNNYWSWIRQPAGKGLEWIGRVYSSGLTNYKPSLKSRVTMSVDTSKNQFSLRLNSVTAADTAVYYCARERATVTTRYHYDGMDVWGQGTSVTVSS
VL: QSALTQPASVSGSPGQSITISCTGSSSDIGTYNYVSWYQQYPGKAPELMIYEVNNRPSGVSDRFSGSTSGNTASLTISGLQANDEADYYCSSYSSSSTWVFGGGTKLTVL
notes: also called mAb E

target: T1, mouse CD30L (mouse, UniProt P32972 68-239, limits assumed); test: not described
T1 construct: The form tested is not described
T1 sequence (looked up): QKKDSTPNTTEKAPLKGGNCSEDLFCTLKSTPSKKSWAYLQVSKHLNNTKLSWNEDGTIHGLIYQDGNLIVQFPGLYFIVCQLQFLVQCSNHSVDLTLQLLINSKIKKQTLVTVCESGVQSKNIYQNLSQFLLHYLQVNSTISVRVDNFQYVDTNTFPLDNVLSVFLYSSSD

Binder	binding result
B1	no binding
B2	no binding
B3	no binding
B4	no binding
B5	no binding
B6	no binding

Target: T2, FLAG-hCD30L-EC (N153Q) treated with PNGaseF (human)
T2 construct: also called FLAG-hCD30L-EC + PNGaseF
T2 chain: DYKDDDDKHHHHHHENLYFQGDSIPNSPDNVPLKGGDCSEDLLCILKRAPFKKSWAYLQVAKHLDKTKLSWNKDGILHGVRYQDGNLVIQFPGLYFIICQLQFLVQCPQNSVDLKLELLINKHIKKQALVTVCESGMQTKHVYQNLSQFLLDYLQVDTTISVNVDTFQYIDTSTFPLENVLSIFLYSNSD
Test: HX-MS, 6 uM hCD30L with 6.6 uM mAb

Binder	binding result
B2	binds
B4	binds
B6	binds

target: T3, recombinant human CD30L isoleucine zipper (huCD30L LZ) (human, UniProt P32971 63-234); test: blocking of human CD30L LZ binding to K299 cells (CD30)
T3 construct: also called huCD38L LZ; CD30L LZ Hu; not shown: N-terminal isoleucine zipper motif (leucine zipper with leucines replaced by isoleucines)
T3 sequence: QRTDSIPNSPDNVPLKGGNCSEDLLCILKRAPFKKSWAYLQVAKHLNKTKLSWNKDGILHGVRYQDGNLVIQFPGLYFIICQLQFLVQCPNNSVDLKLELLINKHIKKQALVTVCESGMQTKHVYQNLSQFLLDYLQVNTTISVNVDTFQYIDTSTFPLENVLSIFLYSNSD

Binder	IC50 [nM]
B1	1.5
B3	2.5
B4	2
B5	1.9
B6	2.1

target: T4, native human CD30L expressed on Ramos cells (human, UniProt P32971 1-234); test: FACS Kd method on Ramos cells, equilibrium, KinExA n-curve analysis
T4 construct: It is used here for the native protein on human B cell lines; also called huCD30L; Native huCD30L
T4 sequence: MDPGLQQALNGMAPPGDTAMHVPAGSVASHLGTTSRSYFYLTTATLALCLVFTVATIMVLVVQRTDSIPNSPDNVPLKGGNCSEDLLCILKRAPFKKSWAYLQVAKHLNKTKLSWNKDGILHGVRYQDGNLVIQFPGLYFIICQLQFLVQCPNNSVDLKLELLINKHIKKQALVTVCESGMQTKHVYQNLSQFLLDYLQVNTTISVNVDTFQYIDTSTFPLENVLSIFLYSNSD
Method: Binding affinity of CD30L antibodies to CD30L expressed on Ramos cells were determined by FACS Kd method. The Ramos cells were cultured in RMPI1640 media+10% FBS+L-glut+0.05% azide. Two equilibrium reactions were set up where the antibodies were titrated 1:3 from 60 nM to […] using cell culture media and incubated with two different constant cell concentrations (25000 and 250000 cells). The plates were sealed with parafilm and incubated at 37° C., 20 h, shaking. The equilibrium plates were centrifuged and cell pellets were washed twice with ice cold FACS buffer (1× D-PBS+2% FBS). The cells were then incubated with a secondary antibody goat anti-human Fe Cy5 (Jackson Immuno Research, West Grove, Pa.) and with 7AAD (BD-Biosciences, Rockville, Md.) for 1 h on ice in the dark. Following the incubation, the cells were washed twice with ice-cold FACS buffer before flow cytometry analysis. The GeoMean values of FL4 shift gated on live cell population measure the bound [Ab]. The inverse of the GeoMean values that reflects theoretical free [Ag] in the equilibrium solution was then calculated. The inverse values of the GeoMean read were used in KinExA software for analysis and Kd calculation for each antibody. The free [Ag] measure was plotted against the starting concentration of titrating component and from these plots at two different cell concentrations the Kd was obtained from curve fitting using n-curve analysis in KinExA™ Pro software. The 95% confidence interval is given as Kd low and Kd high.

Binder	Kd [nM]
B1	0.0255
B2	0.0119
B3	0.00743
B4	0.0357
B5	0.044
B6	0.0521

target: T4, native human CD30L expressed on Ramos …; test: FACS, antibody at 50 ug/mL, inhibition of huCD30.Fc-His binding to Ramos cells
Method: The antibodies were also screened for ability to block binding of human CD30L to a soluble human CD30. c molecule. Briefly, human Ramos cells or activated cynomolgus monkey T cells were incubated with anti-CD30L IgGs at 50 μg/mL in blocking buffer for 30 minutes at 4° C. Soluble huCD30. Fc-His was then added at a final concentration of 2.5 ug/mL (30 μL/well) and incubated for 30 minutes at 4° C. Cells were washed ×2 with PBS and incubated with 5 μg/mL of a mouse anti-His monoclonal antibody (30μL/well in blocking buffer) and incubated for 30 minutes at 4° C. After washing ×2 with PBS, cells were incubated with anti-mouse IgG-PE (1:50 in PBS; BD Pharmingen, San Diego, Calif.) for a further 30 minutes at […]. Cells were then washed ×2 with PBS and prepared for FACs analysis.

Binder	% inhibition [%]
B1	68
B2	55
B3	70
B5	88
B6	80
